These results are taken from US20040082509.

In data set [1] the target is T1, D-TAT-JNKI1 (i.e., D-TAT-JBD20).
T1 chain: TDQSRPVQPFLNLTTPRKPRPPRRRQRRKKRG

Data set [2] concerns the target T2, L-TAT-JNKI1 (i.e., L-TAT-JBD20).
T2 chain: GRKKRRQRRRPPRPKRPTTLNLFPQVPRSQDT

A further data set has as its target T3, L-TAT-IB2 peptide.
T3 chain: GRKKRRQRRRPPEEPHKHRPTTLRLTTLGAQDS

Another data set addresses T4, L-TAT-IB1 peptide.
T4 chain: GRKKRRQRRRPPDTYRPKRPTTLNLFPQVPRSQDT

The target of a further data set is T5, D-TAT-IB1 peptide.
T5 chain: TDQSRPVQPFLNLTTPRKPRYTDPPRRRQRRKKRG

B1: recombinant JNK1α1 (protein)
chain: MSRSKRDNNFYSVEIGDSTFTVLKRYQNLKPIGSGAQGIVCAAYDAILERNVAIKKLSRPFQNQTHAKRAYRELVLMKCVNHKNIIGLLNVFTPQKSLEEFQDVYIVMELMDANLCQVIQMELDHERMSYLLYQMLCGIKHLHSAGIIHRDLKPSNIVVKSDCTLKILDFGLARTAGTSFMMTPYVVTRYYRAPEVILGMGYKENVDLWSVGCIMGEMVCHKILFPGRDYIDQWNKVIEQLGTPCPEFMKKLQPTVRTYVENRPKYAGYSFEKLFPDVLFPADSEHNKLKASQARDLLSKMLVIDASKRISVDEALQHPYINVWYDPSEAEAPPPKIPDKQLDEREHTIEEWKELIYKEVMDLEERTKNGVIRGQPSPLAQVQQ
B1: the “in vitro phosphorylation of GST-Jun and GST-Elk1 by JNK1α1, kinase assay” value is “their ability to prevent the phosphorylation in vitro of known JNK targets c-Jun and Elk1 using JNK1α1” in data set [1]; “their ability to prevent the phosphorylation in vitro of known JNK targets c-Jun and Elk1 using JNK1α1” in data set [2].

B2: recombinant nonactivated JNK3 (protein)
chain: MSLHFLYYCSEPTLDVKIAFCQGFDKQVDVSYIAKHYNMSKSKVDNQFYSVEVGDSTFTVLKRYQNLKPIGSGAQGIVCAAYDAVLDRNVAIKKLSRPFQNQTHAKRAYRELVLMKCVNHKNIISLLNVFTPQKTLEEFQDVYLVMELMDANLCQVIQMELDHERMSYLLYQMLCGIKHLHSAGIIHRDLKPSNIVVKSDCTLKILDFGLARTAGTSFMMTPYVVTRYYRAPEVILGMGYKENVDIWSVGCIMGEMVRHKILFPGRDYIDQWNKVIEQLGTPCPEFMKKLQPTVRNYVENRPKYAGLTFPKLFPDSLFPADSEHNKLKASQARDLLSKMLVIDPAKRISVDDALQHPYINVWYDPAEVEAPPPQIYDKQLDEREHTIEEWKELIYKEVMNSEEKTKNGVVKGQPSPSGAAVNSSESLPPSSSVNDISSMSTDQTLASDTDSSLEASAGPLGCCR
Take B2: in the data set with L-TAT-IB2 peptide, the “phosphorylation of Elk1 by recombinant JNK3, solid phase kinase assay” value is listed as “a marked exception was the absence of TAT-IB inhibition of JNK3 phosphorylation of Elk1”; the “phosphorylation of c-Jun and ATF2 by recombinant JNK3, solid phase kinase assay (peptide 0-25 µM)” value is “Nearly complete inhibition of c-Jun, ATF2 and Elk1 phosphorylation by JNKs was observed at TAT-IB peptide doses as low as 2.5 µM”. Also, in the data set with L-TAT-IB1 peptide, the “phosphorylation of Elk1 by recombinant JNK3, solid phase kinase assay” value is on record as “a marked exception was the absence of TAT-IB inhibition of JNK3 phosphorylation of Elk1”; the “phosphorylation of c-Jun and ATF2 by recombinant JNK3, solid phase kinase assay (peptide 0-25 µM)” value is “Nearly complete inhibition of c-Jun, ATF2 and Elk1 phosphorylation by JNKs was observed at TAT-IB peptide doses as low as 2.5 µM”. Moreover, the “GST-Jun (a.a. 1-73) phosphorylation by recombinant JNK3, fold less efficient than L-TAT-IB1 (0-250 µM dosage study)” value with D-TAT-IB1 peptide was “approximately 10-20 fold less efficiently than L-TAT-IB1”.

B3: MKK4 kinase (protein)
chain: MAAPSPSGGGGSGGGSGSGTPGPVGSPAPGHPAVSSMQGKRKALKLNFANPPFKSTARFTLNPNPTGVQNPHIERLRTHSIESSGKLKISPEQHWDFTAEDLKDLGEIGRGAYGSVNKMVHKPSGQIMAVKRIRSTVDEKEQKQLLMDLDVVMRSSDCPYIVQFYGALFREGDCWICMELMSTSFDKFYKYVYSVLDDVIPEEILGKITLATVKALNHLKENLKIIHRDIKPSNILLDRSGNIKLCDFGISGQLVDSIAKTRDAGCRPYMAPERIDPSASRQGYDVRSDVWSLGITLYELATGRFPYPKWNSVFDQLTQVVKGDPPQLSNSEEREFSPSFINFVNLCLTKDESKRPKYKELLKHPFILMYEERAVEVACYVCKILDQMPATPSSPMYVD
As for B3, the “kinase activity towards its substrate, panel of 40 kinases (10 µM peptides, 10 µM ATP)” value in data set [1] was “the JNKI peptides had an affect on the JNKs and MKK4 and MKK7 kinases”; in data set [2], “the JNKI peptides had an affect on the JNKs and MKK4 and MKK7 kinases”.

B4: recombinant nonactivated JNK1 (protein)
chain: MSRSKRDNNFYSVEIGDSTFTVLKRYQNLKPIGSGAQGIVCAAYDAILERNVAIKKLSRPFQNQTHAKRAYRELVLMKCVNHKNIIGLLNVFTPQKSLEEFQDVYIVMELMDANLCQVIQMELDHERMSYLLYQMLCGIKHLHSAGIIHRDLKPSNIVVKSDCTLKILDFGLARTAGTSFMMTPYVVTRYYRAPEVILGMGYKENVDLWSVGCIMGEMVCHKILFPGRDYIDQWNKVIEQLGTPCPEFMKKLQPTVRTYVENRPKYAGYSFEKLFPDVLFPADSEHNKLKASQARDLLSKMLVIDASKRISVDEALQHPYINVWYDPSEAEAPPPKIPDKQLDEREHTIEEWKELIYKEVMDLEERTKNGVIRGQPSPLGAAVINGSQHPSSSSSVNDVSSMSTDPTLASDTDSSLEAAAGPLGCCR
For B4, the “phosphorylation of c-Jun, ATF2 and Elk1 by recombinant JNK1, solid phase kinase assay (peptide 0-25 µM)” value in the data set with L-TAT-IB2 peptide was “Nearly complete inhibition of c-Jun, ATF2 and Elk1 phosphorylation by JNKs was observed at TAT-IB peptide doses as low as 2.5 µM”; with L-TAT-IB1 peptide, “Nearly complete inhibition of c-Jun, ATF2 and Elk1 phosphorylation by JNKs was observed at TAT-IB peptide doses as low as 2.5 µM”. Also, the “GST-Jun (a.a. 1-73) phosphorylation by recombinant JNK1, fold less efficient than L-TAT-IB1 (0-250 µM dosage study)” value in the data set with D-TAT-IB1 peptide is recorded as “approximately 10-20 fold less efficiently than L-TAT-IB1”.

B5: recombinant nonactivated JNK2 (protein)
chain: MSDSKCDSQFYSVQVADSTFTVLKRYQQLKPIGSGAQGIVCAAFDTVLGINVAVKKLSRPFQNQTHAKRAYRELVLLKCVNHKNIISLLNVFTPQKTLEEFQDVYLVMELMDANLCQVIHMELDHERMSYLLYQMLCGIKHLHSAGIIHRDLKPSNIVVKSDCTLKILDFGLARTACTNFMMTPYVVTRYYRAPEVILGMGYKENVDIWSVGCIMGELVKGCVIFQGTDHIDQWNKVIEQLGTPSAEFMKKLQPTVRNYVENRPKYPGIKFEELFPDWIFPSESERDKIKTSQARDLLSKMLVIDPDKRISVDEALRHPYITVWYDPAEAEAPPPQIYDAQLEEREHAIEEWKELIYKEVMDWEERSKNGVVKDQPSDAAVSSNATPSQSSSINDISSMSTEQTLASDTDSSLDASTGPLEGCR
B5: the “phosphorylation of c-Jun, ATF2 and Elk1 by recombinant JNK2, solid phase kinase assay (peptide 0-25 µM)” value with L-TAT-IB2 peptide was “Nearly complete inhibition of c-Jun, ATF2 and Elk1 phosphorylation by JNKs was observed at TAT-IB peptide doses as low as 2.5 µM”; with L-TAT-IB1 peptide, “Nearly complete inhibition of c-Jun, ATF2 and Elk1 phosphorylation by JNKs was observed at TAT-IB peptide doses as low as 2.5 µM”. For the same protein, the “GST-Jun (a.a. 1-73) phosphorylation by recombinant JNK2, fold less efficient than L-TAT-IB1 (0-250 µM dosage study)” value with D-TAT-IB1 peptide is recorded as “approximately 10-20 fold less efficiently than L-TAT-IB1”.

B6: MKK7 kinase (protein)
chain: MAASSLEQKLSRLEAKLKQENREARRRIDLNLDISPQRPRPTLQLPLANDGGSRSPSSESSPQHPTPPARPRHMLGLPSTLFTPRSMESIEIDQKLQEIMKQTGYLTIGGQRYQAEINDLENLGEMGSGTCGQVWKMRFRKTGHVIAVKQMRRSGNKEENKRILMDLDVVLKSHDCPYIVQCFGTFITNTDVFIAMELMGTCAEKLKKRMQGPIPERILGKMTVAIVKALYYLKEKHGVIHRDVKPSNILLDERGQIKLCDFGISGRLVDSKAKTRSAGCAAYMAPERIDPPDPTKPDYDIRADVWSLGISLVELATGQFPYKNCKTDFEVLTKVLQEEPPLLPGHMGFSGDFQSFVKDCLTKDHRKRPKYNKLLEHSFIKRYETLEVDVASWFKDVMAKTESPRTSGVLSQPHLPFFR
For B6, the “kinase activity towards its substrate, panel of 40 kinases (10 µM peptides, 10 µM ATP)” value was “the JNKI peptides had an affect on the JNKs and MKK4 and MKK7 kinases” in data set [1]; “the JNKI peptides had an affect on the JNKs and MKK4 and MKK7 kinases” in data set [2].
